Earlier results on four substances are cited in publication PMC8526019.

By Kd is commonly meant a measure of binding affinity in units of concentration.

Data set [1] concerns the target ATG3 (Homo sapiens) (UniProt Q9NT62).
The target of data set [2] is E-cadherin (Homo sapiens) (UniProt P12830).
For data set [3], the target named is Atg7 (Saccharomyces cerevisiae) (UniProt P38862).
Data set [4] addresses ATG14 (Homo sapiens) (UniProt Q6ZNE5).
Chain of UniProt Q6ZNE5 (Q6ZNE5 whole entry): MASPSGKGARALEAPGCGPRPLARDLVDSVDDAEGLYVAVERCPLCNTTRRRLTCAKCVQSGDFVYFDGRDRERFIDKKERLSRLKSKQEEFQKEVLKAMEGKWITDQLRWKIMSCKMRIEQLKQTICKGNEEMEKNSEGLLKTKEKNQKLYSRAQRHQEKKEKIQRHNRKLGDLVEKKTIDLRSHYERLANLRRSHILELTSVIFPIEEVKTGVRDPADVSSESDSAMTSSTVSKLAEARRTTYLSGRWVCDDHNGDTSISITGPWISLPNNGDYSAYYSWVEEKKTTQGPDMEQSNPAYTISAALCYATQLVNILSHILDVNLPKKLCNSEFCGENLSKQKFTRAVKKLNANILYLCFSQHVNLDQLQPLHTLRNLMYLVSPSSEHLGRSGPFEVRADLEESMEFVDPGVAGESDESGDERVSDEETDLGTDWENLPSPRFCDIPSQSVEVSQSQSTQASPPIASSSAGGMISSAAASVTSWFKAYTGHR

Chain of UniProt Q9NT62 (Q9NT62 whole entry): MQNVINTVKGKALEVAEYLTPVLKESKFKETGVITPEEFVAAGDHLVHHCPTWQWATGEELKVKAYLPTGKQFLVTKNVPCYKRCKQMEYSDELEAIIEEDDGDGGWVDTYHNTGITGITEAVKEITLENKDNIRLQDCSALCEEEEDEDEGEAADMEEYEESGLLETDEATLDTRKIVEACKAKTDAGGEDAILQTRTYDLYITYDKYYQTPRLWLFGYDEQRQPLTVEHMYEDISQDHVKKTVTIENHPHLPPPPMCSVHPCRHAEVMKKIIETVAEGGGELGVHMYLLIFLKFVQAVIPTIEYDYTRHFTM

In the case of ATG12 (from UniProt O94817), the dissociation constant Kd in data set [1] is 0.05 µM.

Take E-cadherin (from UniProt P12830): the equilibrium dissociation constant (Kd) in data set [2] was 160 µM.

On to Atg7 (from UniProt P38862), for which the equilibrium dissociation constant (Kd) in data set [3] was 0.001 µM. In the case of BECN1 (from UniProt Q14457), the dissociation constant (Kd) in data set [4] was 3.2 µM.
